Substrate in data set [1]: CC(=O)CCC[N+](C)(C)[O-]
Description: (§1) Compound was evaluated for reversible inhibition of hydrolysis acetylcholine by acetylcholinesterase and represented as Km(app) apparent binding constant
Substrate in data set [2]: CC(=O)OCCS(C)(=O)=O
Description: as §1
Substrate in data set [3]: CC(C)(C)CCO
Description: as §1
Substrate in data set [4]: CCCCO
Description: as §1
Substrate in data set [5]: CN(C)C
Description: as §1
Substrate in data set [6]: CS(=O)(=O)CCO
Description: as §1
Substrate in data set [7]: CSCCO
Description: as §1
Substrate in data set [8]: C[N+](C)(C)CCO
Description: as §1
Substrate in data set [9]: C[S+](C)CCO
Description: as §1
Substrate in data set [10]: C[Si](C)(C)CCO
Description: as §1
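Note: apparent binding constant Km(app) for reversible inhibition of acetylcholine hydrolysis catalysed by acetylcholinesterase.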

B1: Choline O-acetyltransferase (Rattus norvegicus), P32738 (protein)
chain: MPILEKAPQKMPVKASSWEELDLPKLPVPPLQQTLATYLQCMQHLVPEEQFRKSQAIVKRFGAPGGLGETLQEKLLERQEKTANWVSEYWLNDMYLNNRLALPVNSSPAVIFARQHFQDTNDQLRFAACLISGVLSYKTLLDSHSLPTDWAKGQLSGQPLCMKQYYRLFSSYRLPGHTQDTLVAQKSSIMPEPEHVIVACCNQFFVLDVVINFRRLSEGDLFTQLRKIVKMASNEDERLPPIGLLTSDGRSEWAKARTVLLKDSTNRDSLDMIERCICLVCLDGPGTGELSDTHRALQLLHGGGCSLNGANRWYDKSLQFVVGRDGTCGVVCEHSPFDGIVLVQCTEHLLKHMMTSNKKLVRADSVSELPAPRRLRLKCSPETQGHLASSAEKLQRIVKNLDFIVYKFDNYGKTFIKKQKYSPDGFIQVALQLAYYRLYQRLVPTYESASIRRFQEGRVDNIRSATPEALAFVQAMTDHKAAMPASEKLQLLQTAMQAHKQYTVMAITGMAIDNHLLALRELARDLCKEPPEMFMDETYLMSNRFVLSTSQVPTTMEMFCCYGPVVPNGNGACYNPQPEAITFCISSFHSCKETSSVEFAEAVGASLVDMRDLCSSRQPADSKPPAPKEKARGPSQAKQS
As to B1, the Km in data set [1] came to 18 mM; in data set [2], 6.2 mM; in [3] it was 5.3 mM; in data set [4], 13 mM; in data set [5], 18 mM; in data set [6] it was 6.2 mM. Besides, the Km amounted to 15 mM in data set [7], 0.33 mM in data set [8], 0.33 mM in [9] and 3.5 mM in [10].

The record behind these values is ChEMBL document CHEMBL1123043, “Effects of charge, volume, and surface on binding of inhibitor and substrate moieties to acetylcholinesterase” (J Med Chem, 1985).
